Assay results taken from doi:10.1101/2025.10.03.680336 (bioRxiv, 2025).
Each block holds one binder with its values, some of them ahead of it.

What was measured:
SEC-MALS = target: the molecule itself; experiment: SEC-MALS
mass photometry = target: the molecule itself; experiment: mass photometry
crystal structure = target: the molecule itself; experiment: crystal structure
[1] = target: T1, NG-fusion of PReMΔH1 (Cnn 462-608) (Drosophila melanogaster, UniProt P54623-2 462-608); experiment: fluorescence microscopy of networks formed on mixing purified proteins
T1 sequence (looked up): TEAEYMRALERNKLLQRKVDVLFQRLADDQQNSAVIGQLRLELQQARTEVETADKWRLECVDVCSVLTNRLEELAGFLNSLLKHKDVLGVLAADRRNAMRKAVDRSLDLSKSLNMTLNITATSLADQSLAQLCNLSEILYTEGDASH

[2] = target: T2, NG-CDK5RAP2-PReM (CDK5RAP2 residues 535-639) (human, UniProt Q96SN8 535-639); experiment: as above
T2 sequence (looked up): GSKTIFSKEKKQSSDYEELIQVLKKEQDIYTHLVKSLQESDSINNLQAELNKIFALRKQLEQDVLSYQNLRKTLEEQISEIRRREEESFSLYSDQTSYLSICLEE

[3] = target: T3, full length SPD-5-GFP (C. elegans), P91349; experiment: mass photometry; details: remark: other sources report otherwise
T3 chain: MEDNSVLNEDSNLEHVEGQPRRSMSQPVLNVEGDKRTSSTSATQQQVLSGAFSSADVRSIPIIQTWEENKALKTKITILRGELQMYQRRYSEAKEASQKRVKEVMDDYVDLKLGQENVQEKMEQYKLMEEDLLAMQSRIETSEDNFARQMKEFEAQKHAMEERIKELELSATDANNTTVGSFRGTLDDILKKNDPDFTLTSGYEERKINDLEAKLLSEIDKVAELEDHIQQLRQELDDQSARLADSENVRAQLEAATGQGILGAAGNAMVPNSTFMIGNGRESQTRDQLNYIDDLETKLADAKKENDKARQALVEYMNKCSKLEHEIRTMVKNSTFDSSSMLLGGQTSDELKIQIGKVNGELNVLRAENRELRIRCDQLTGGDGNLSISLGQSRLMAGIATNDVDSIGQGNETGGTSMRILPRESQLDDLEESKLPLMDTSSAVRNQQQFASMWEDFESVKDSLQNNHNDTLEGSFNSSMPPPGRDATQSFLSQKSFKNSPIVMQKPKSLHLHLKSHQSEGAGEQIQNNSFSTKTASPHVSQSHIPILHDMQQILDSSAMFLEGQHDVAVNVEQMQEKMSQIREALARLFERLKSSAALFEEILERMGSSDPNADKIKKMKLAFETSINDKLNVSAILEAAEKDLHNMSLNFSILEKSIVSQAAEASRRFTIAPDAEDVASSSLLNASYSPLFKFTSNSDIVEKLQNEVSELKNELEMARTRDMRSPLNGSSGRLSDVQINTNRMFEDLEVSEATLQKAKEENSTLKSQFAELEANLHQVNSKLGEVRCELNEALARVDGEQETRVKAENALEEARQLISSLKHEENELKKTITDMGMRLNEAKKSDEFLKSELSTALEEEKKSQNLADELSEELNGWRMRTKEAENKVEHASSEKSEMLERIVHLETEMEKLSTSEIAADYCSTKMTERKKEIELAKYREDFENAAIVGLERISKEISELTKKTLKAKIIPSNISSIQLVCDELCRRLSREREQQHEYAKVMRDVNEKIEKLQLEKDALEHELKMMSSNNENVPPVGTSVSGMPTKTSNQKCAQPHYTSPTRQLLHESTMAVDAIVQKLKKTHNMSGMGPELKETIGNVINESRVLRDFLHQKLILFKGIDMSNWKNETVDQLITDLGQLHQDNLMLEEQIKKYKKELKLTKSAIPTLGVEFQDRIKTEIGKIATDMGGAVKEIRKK

B1: MBP-fusion of PReM domain construct Cnn 490-608 (domain or fragment, Drosophila melanogaster, UniProt P54623-2 490-608, looked up)
chain: DQQNSAVIGQLRLELQQARTEVETADKWRLECVDVCSVLTNRLEELAGFLNSLLKHKDVLGVLAADRRNAMRKAVDRSLDLSKSLNMTLNITATSLADQSLAQLCNLSEILYTEGDASH
stoichiometry N (SEC-MALS): 2

B2: full length Cnn-GFP (natural protein, Drosophila melanogaster, UniProt P54623-2 1-1148, looked up)
chain: MDQSKQVLRDYCGDGNGTCASSLKEITLIETVTSFLEENGAAEIDRRVLRKLAEALSKSIDDTSPGALQDVTMENSYASFDVPRPPGGGNSPLPSQGRSVRELEEQMSALRKENFNLKLRIYFLEEGQPGARADSSTESLSKQLIDAKIEIATLRKTVDVKMELLKDAARAISHHEELQRKADIDSQAIIDELQEQIHAYQMAESGGQPVENIAKTRKMLRLESEVQRLEEELVNIEARNVAARNELEFMLAERLESLTACEGKIQELAIKNSELVERLEKETASAESSNANRDLGAQLADKICELQEAQEKLKERERIHEQACRTIQKLMQKLSSQEKEIKKLNQENEQSANKENDCAKTVISPSSSGRSMSDNEASSQEMSTNLRVRYELKINEQEEKIKQLQTEVKKKTANLQNLVNKELWEKNREVERLTKLLANQQKTLPQISEESAGEADLQQSFTEAEYMRALERNKLLQRKVDVLFQRLADDQQNSAVIGQLRLELQQARTEVETADKWRLECVDVCSVLTNRLEELAGFLNSLLKHKDVLGVLAADRRNAMRKAVDRSLDLSKSLNMTLNITATSLADQSLAQLCNLSEILYTEGDASHKTFNSHEELHAATSMAPTVENLKAENKALKKELEKRRSSEGQRKERRSLPLPSQQFDNQSESEAWSEPDRKVSLARIGLDETSNSLAAPEQAISESESEGRTCATRQDRNRNSERIAQLEEQIAQKDERMLNVQCQMVELDNRYKQEQLRCLDITQQLEQLRAINEALTADLHAIGSHEEERMVELQRQLELKNQQIDQLKLAHSTLTADSQITEMELQALQQQMQEIEQLHADSVETLQSQLQKLKLDAVQQLEEHERLHREALERDWVALTTYQEQAQQLLELQRSLDYHQENEKELKQTLVENELATRALKKQLDESTLQASKAVMERTKAYNDKLQLEKRSEELRLQLEALKEEHQKLLQKRSNSSDVSQSGYTSEEVAVPMGPPSGQATTCKQAAAAVLGQRVNTSSPDLGIESDAGRISSVEVSNAQRAMLKTVEMKTEGSASPKAKSEESTSPDSKSNVATGAATVHDCAKVDLENAELRRKLIRTKRAFEDTYEKLRMANKAKAQVEKDIKNQILKTHNVLRNVRSNMENEL
stoichiometry N (mass photometry): 2

B3: Cnn 490-579 2A mutant (domain or fragment, Drosophila melanogaster, UniProt P54623-2 490-579, looked up)
chain: DQQNSAVIGQLRLELQQARTEVETADKWRLECVDVCSVLTNRLEELAGFLNSLLKHKDVLGVLAADRRNAMRKAVDRALDLAKSLNMTLN
binding result (crystal structure): binds

B4: MBP-fusion of PReM domain construct Cnn 462-608 (domain or fragment, Drosophila melanogaster, UniProt P54623-2 462-608, looked up)
chain: T1 sequence (looked up)
stoichiometry N (SEC-MALS): 2

binding result [1]: binds
binding result [2]: binds
B5: human CDK5RAP2 CM2 (residues 1812-1893) (domain or fragment, UniProt Q96SN8 1812-1893, looked up)
chain: PLHCEQIGEMKAEVTKLHKKLFEQEKKLQNTMKLLQLSKRQEKVIFDQLVVTHKILRKARGNLELRPGGAHPGTCSPSRPGS

stoichiometry N [3]: 2
B6: full length SPD-5-GFP, P91349 1-1198 (natural protein)
chain: T3 chain
